Measurements from patent US20250375541A1, “RADIOPHARMACEUTICAL COMPOSITION AND METHODS” (Ariceum Therapeutics GmbH, priority 2024, published 2025).

Assay: Stability of the radiopharmaceutical composition: radiochemical purity by radio-TLC over time from EoP
Format: physicochemical
Details: Tris pH 8.0, sodium ascorbate formulation
Description: Upon reaction completion, the mixture was directly cooled down with formulation solution (123.7 mg/mL sodium ascorbate buffer) to yield a 20 mL [^225Ac]Ac-DOTA-satoreotide stock solution. Reaction completion is referred to as the “end-of-production” (EoP) time, or t=0 h as used in the following results.
This was determined by radio TLC as set out below.
Radio-TLC was performed at T=0 h and at various time points subsequent to the radiolabeling procedure. To run the procedure, 5 μL of reaction solution was spotted on a TLC plate (RP-C18 silica glass plates) at about 1.5 cm from bottom edge. The TLC plate was developed using a mobile phase mixture of ammonium acetate 25% and methanol (40:60 Vol.-%) with an elution length of about 5-6 cm. The TLC plate was dried and measured on a phosphor imager (Perkin Elmer Cyclone Plus Storage Phosphor system) once secular equilibrium of ^225Ac and ^221Fr/^213Bi was reached (>6 hours after development). Free Ac(III) stays at the origin while ^225Ac-DOTA-Satoreotide travels with the eluent front.
In FIG. 1, “T=Xh, read Yh” means that a sample was taken and developed at T=Xh but analyzed Yh after development of the TLC plate, to account for equilibrium of the daughters.

In the case of [^225Ac]Ac-DOTA-satoreotide, the radiochemical purity (after 168 hours (from EoP) at ambient temperatures) is reported as 95.8% and the radiochemical purity (at 96 h from EoP) is reported as 98.9%.
